# Reference: patent US6989362 (ROCKEFELLER UNIVERSITY, dated 2006)
# B1: phospho-Thr75 DARPP-32 (other)
# chain: MDPKDRKKIQFSVPAPPSQLDPRQVEMIRRRRPTPAMLFRLSEHSSPEEEASPHQRASGEGHHLKSKRPNPCAYTPPSLKAVQRIAESHLQSISNLNENQASEEEDELGELRELGYPREEDEEEEEDDEEEEEEEDSQAEVLKVIRQSAGQKTTRGLGLEGPWERPPPLDESERDGGSEDQVEDPALSEPGEEPQRPSPSEPGR
# Target: purified catalytic subunit of cAMP-dependent protein kinase (PKA)
# Test: kinetic analysis of PKA phosphorylation of ARPP-21 at 0-15 uM phospho-Thr75 DARPP-32; Lineweaver-Burk and secondary plot, competitive inhibition
binder,measurement,value
B1,Ki,2700 nM
